The text below walks through data of patent US20250320312A1 (OXITOPE PHARMA B V, published 2025).

To fix the notation:
T1: Peptide 4: Biotin-AGGGGSGGGGSGGGGSAAA-Tyr-acid (N-terminal biotin; C-terminal acid; no PC)
T1 construct: control peptide without PC
T1 peptide: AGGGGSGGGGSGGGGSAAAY

T2: Peptide 8: Biotin-AEAAAKEAAAKEAAAKEAAAKAAA-Tyr-acid (N-terminal biotin; C-terminal acid; no PC)
T2 construct: control peptide without PC
T2 peptide: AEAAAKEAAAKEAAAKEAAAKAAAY

B1: PcOxP_DB02_E09 (scFv, V domains shown)
VH: EVQLLESGGGLVQPGGSLRLSCAASGFTFSDYYMEWVRQAPGKGLEWVAASRWKANDYTTEYADSVKGRFTISRDNSKNTLYLQMNSLRAEDTAVYYCARDYYGSSYWYFDVWGQGTLVTVSS
VL: DIVMTQSPDSLAVSLGERATINCTASESLYSSKHKVHYLAWYQQKPGQPPKLLIYGASTRYSGVPDRFSGSGSGTDFTLTISSLQAEDVAVYYCAQFYTYPLTFGGGTKVEIK
notes: scFv in periplasmic extract
B2: PcOxP_DB02_E03 (scFv, V domains shown)
VH: B1 VH with Y107Q
VL: B1 VL with V36K, H37N, T59W, S62I, T99S
notes: scFv in periplasmic extract
B3: PcOxP_DB02_E11 (scFv, V domains shown)
VH: B1 VH with Y32Q, W53N, T60V
VL: B1 VL with T24K, A25S, Y30L, S31Y, H34N, K35N, V36K, H37N, T59N, T99S
notes: scFv in periplasmic extract
B4: PcOxP_DB02_E08 (scFv, V domains shown)
VH: B1 VH with Y32D, S51T, W53N, V112S
VL: B1 VL with T59N, S62I, T99S
notes: scFv in periplasmic extract
B5: PcOxP_DB01_G05 (human IgG1) (antibody, V domains shown)
VH: B1 VH with D31S, W53N, D57E
VL: B1 VL with T59N, S62I, Q96N, T99S
B6: PcOxP_DB04_A11 (human IgG1) (antibody, V domains shown)
VH: B1 VH with W53N, D57T
VL: B1 VL with L29V, Y30L, V36K, H37N, S62I, T99S
B7: PcOxP_DB03_C12 (human IgG1) (antibody, V domains shown)
VH: B1 VH with W53N
VL: DIQMTQSPSSLSASVGDRVTITCTASESLYSSKHKVHYLAWYQQKPGKAPKLLIYGASNRYGGVPSRFSGSGSGTDFTLTISSLQPEDFATYYCAQFYSYPLTFGGGTKVEIK
B8: PcOxP_DB01_E05 (human IgG1) (antibody, V domains shown)
VH: B1 VH with W53N
VL: B7 VL with H37N, G62I, S99Q
B9: PcOxP_DB02_C01 (human IgG1) (antibody, V domains shown)
VH: B1 VH with Y32A, W53N
VL: B7 VL with G62I
B10: PcOxP_DB01_C04 (human IgG1) (antibody, V domains shown)
VH: B1 VH with T28Q, Y32F, W53N
VL: B7 VL with G62I, S99Y
B11: PcOxP_DB01_H01 (human IgG1) (antibody, V domains shown)
VH: B1 VH with D31S, W53N, D57L, Y107T
VL: B1 VL with T59N, S62I, T99S
B12: PcOxP_DB01_F01 (human IgG1) (antibody, V domains shown)
VH: B1 VH with T28P, Y32F, W53N, S106P
VL: B1 VL with L29V, H34N, V36K, T59N, S62I
B13: PcOxP_DB01_G09 (human IgG1) (antibody, V domains shown)
VH: B1 VH with W53N, D57T
VL: B7 VL with R60L, G62S
B14: PcOxP_DB01_D11 (human IgG1) (antibody, V domains shown)
VH: B1 VH with D31S, W53N, F110N
VL: B1 VL with H34W, T59N, S62I, T99S
B15: PcOxP_DB01_G10 (human IgG1) (antibody, V domains shown)
VH: B1 VH with Y32F, W53N, A55N
VL: B1 VL with T24K, E27Q, V36K, T59N, S62P, T99R
B16: PcOxP_DB01_A06 (human IgG1) (antibody, V domains shown)
VH: B1 VH with W53N
VL: B7 VL with G62I, Q96E
B17: PcOxP_DB01_D01 (human IgG1) (antibody, V domains shown)
VH: B1 VH with D31S, W53N
VL: B1 VL with S32P, T59N, S62I, T99I
B18: PcOxP_DB03_C10 (human IgG1) (antibody, V domains shown)
VH: B1 VH with D31S, W53N, D57E
VL: B1 VL with S58G, T59N, S62I, T99S
B19: PcOxP_DB02_A06 (human IgG1) (antibody, V domains shown)
VH: B1 VH with Y32Q, W53N
VL: B7 VL with A57L, G62I
B20: PcOxP_DB03_C03 (human IgG1) (antibody, V domains shown)
VH: B1 VH with Y32F, W53N, A55Y
VL: B7 VL with G62I
B21: PcOxP_DB01_B09 (human IgG1) (antibody, V domains shown)
VH: B1 VH with W53N
VL: B7 VL with G62T, S99H
B22: PcOxP_DB03_H08 (human IgG1) (antibody, V domains shown)
VH: B1 VH with F27G, Y32F, W53N, D57T
VL: B7 VL with A57S, G62I, S99Q
B23: PcOxP_DB03_A09 (human IgG1) (antibody, V domains shown)
VH: B1 VH with W53N
VL: B7 VL with Y61G, G62I
B24: PcOxP_DB01_H02 (human IgG1) (antibody, V domains shown)
VH: B1 VH with D31S, W53N
VL: B1 VL with E27S, T59N, S62I, T99S
B25: PcOxP_DB04_E05 (human IgG1) (antibody, V domains shown)
VH: B1 VH with F27N, Y32F, W53N, D57Y
VL: B1 VL with T59N, S62I, T99S
B26: PcOxP_DB03_D08 (human IgG1) (antibody, V domains shown)
VH: B1 VH with T28W, Y32F, W53N, S106A
VL: B7 VL with G62I
B27: PcOxP_DB03_B09 (human IgG1) (antibody, V domains shown)
VH: B1 VH with D31S, W53N
VL: B1 VL with S58A, T59N, S62I, T99S
B28: PcOxP_DB03_B11 (human IgG1) (antibody, V domains shown)
VH: B1 VH with Y32F, M34V, W53N, D57T
VL: B1 VL with S58Q, T59N, S62I, A95G, T99S
B29: PcOxP_DB02_H07 (human IgG1) (antibody, V domains shown)
VH: B1 VH with D31S, W53N
VL: B1 VL with T59N, S62N
B30: PcOxP_DB01_H04 (human IgG1) (antibody, V domains shown)
VH: B1 VH with T28A, Y32F, W53N, S106H
VL: B7 VL with R60L, Y61Q, G62S, S99Y

Residue numbers refer to the chain shown, from its start.

Chain of BSA (P02769 25-607 limits assumed): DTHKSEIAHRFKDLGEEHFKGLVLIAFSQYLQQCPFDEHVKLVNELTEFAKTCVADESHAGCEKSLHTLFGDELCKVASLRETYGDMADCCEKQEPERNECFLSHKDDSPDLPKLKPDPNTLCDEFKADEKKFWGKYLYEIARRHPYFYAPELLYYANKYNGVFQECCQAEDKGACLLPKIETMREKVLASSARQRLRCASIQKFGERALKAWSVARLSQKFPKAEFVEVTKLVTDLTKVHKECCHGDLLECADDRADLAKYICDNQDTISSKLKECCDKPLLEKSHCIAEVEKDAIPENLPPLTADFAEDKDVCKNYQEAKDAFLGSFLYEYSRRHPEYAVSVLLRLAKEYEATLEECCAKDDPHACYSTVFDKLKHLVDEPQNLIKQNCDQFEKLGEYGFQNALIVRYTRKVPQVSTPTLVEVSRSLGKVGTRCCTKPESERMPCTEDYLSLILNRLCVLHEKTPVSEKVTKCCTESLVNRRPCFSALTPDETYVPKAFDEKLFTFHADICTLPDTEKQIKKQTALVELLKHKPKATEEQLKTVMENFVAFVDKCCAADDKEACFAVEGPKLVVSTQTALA

The first assay concerns the target Peptide 5: Biotin-…-[Tyr(PC)]-acid. The experiment in a line: scFv ELISA.
B1 returned an OD450 of 0.74 OD450.

The molecule B2 had an OD450 of 0.75 OD450. The same measure, in the same setting: in the case of B3 it was 0.76 OD450. The same measure, in the same setting: in the case of B4 it was 0.49 OD450.

Another assay has as its target BSA (UniProt P02769). The experiment in a line: scFv ELISA.
In turn, B1 showed an OD450 of 0.07 OD450. With B2, the OD450 turned out to be 0.08 OD450. On the same count and under the same terms, the same measure for B3: 0.06 OD450; for B4: 0.07 OD450.

The next assay concerns the target Peptide 1: Biotin-…-[Tyr(PC)]-acid. The experiment in a line: scFv ELISA.
Molecule B1 had an OD450 of 0.56 OD450. On the same count and under the same terms, in the case of B2 it was 0.39 OD450; in that of B3, 0.23 OD450. Still for that read-out and setting: the same measure for B4: 0.24 OD450.

In another assay the target is T1, Peptide 4: …. Put plainly: scFv ELISA. The procedure, abridged: (§1)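 Bound scFv was read as OD450 after HRP–anti-V5 detection, TMB development and HCl stop. PPE with BSA was incubated 1 h at RT on BSA-blocked wells coated overnight at 4° C. with peptide, or on streptavidin wells loaded 1 h with biotinylated PC-peptides at 1 μg/mL.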
The molecule B1 showed an OD450 of 0.04 OD450.

The molecule B2 came in with an OD450 of 0.04 OD450. B3 yielded an OD450 of 0.04 OD450. As to B4, the OD450 came out at 0.04 OD450.

The target in another assay is T2, Peptide 8: …. Put plainly: scFv ELISA. The procedure, abridged:
as §1
Molecule B1 yielded an OD450 of 0.04 OD450. The same measure, in the same setting: in the case of B2 it was 0.05 OD450. For the molecule B3, the OD450 was 0.04 OD450. The same measure, in the same setting: the same measure for B4: 0.04 OD450.

In another assay the target is PC-BSA. Put plainly: ELISA (DELFIA TRF), PC-BSA coated, titrated IgG1.
Chain of PC-BSA (P02769 25-607 limits assumed, form in doubt): as the sequence (P02769 25-607 limits assumed) above
In turn, E06 parental IgG1 (antibody) yielded an EC50 of 0.39 nM. Still for that read-out and setting: the same measure for B5: 0.263 nM. Still for that read-out and setting: the same measure for B6: 0.413 nM; for B7: 0.436 nM. Still for that read-out and setting: in the case of B8 it was 0.417 nM; in that of B9, 0.64 nM. In turn, B10 yielded an EC50 of 0.31 nM.

With B11, the concentration giving a half-maximal response (EC50) was found to be 0.275 nM. With B12, the EC50 is 0.672 nM.

The molecule B13 showed an EC50 of 0.308 nM. The same measure, in the same setting: the same measure for B14: 0.242 nM; for B15: 0.407 nM. Same read-out and setting: the same measure for B16: 0.43 nM. On the same count and under the same terms, the same measure for B17: 0.274 nM. As to B18, the EC50 stood at 0.285 nM.

The molecule B19 registered an EC50 of 0.643 nM. Same read-out and setting: the same measure for B20: 0.339 nM. On the same count and under the same terms, in the case of B21 it was 0.317 nM; in that of B22, 0.445 nM; in that of B23, 0.664 nM. The same measure, in the same setting: the same measure for B24: 0.43 nM; for B25: 0.282 nM; for B26: 0.401 nM. B27 gave an EC50 of 0.426 nM.

B28 came in with an EC50 of 0.299 nM. Same read-out and setting: in the case of B29 it was 0.423 nM. On the same count and under the same terms, the same measure for B30: 0.456 nM.
